Data reported in the supplement of paper PMC7877785.
± gives the uncertainty stated by the source.

Experiment: self-splicing fitness, log relative to wild type (ln ratio); higher = more splicing; Tetrahymena group I intron in knt gene, E. coli kanamycin selection, DiMSum; sequences stand for … in CUCUCU…GGAGGGAAAAGUUAUCAGGCAUGCACCUGGUAGCUAGUCUUUAAACCAAUAGAUUGCAUCGGUUUAAAAGGCAAGACCGUCAAAUUGCGGGAAAGGGGUCAACAGCCGUUCAGUACCAAGUCUCAGGGGAAACUUUGAGAUGGCCUUGCAAAGGGUAUGGUAAUAAGCUGACGGACAUGGUCCUAACCACGCAGCCAAGUCCUAAGUCAACAGAUCUUCUGUUGAUAUGGAUGCAGUUCACAGACUAAAUGUCGGUCGGGGAAGAUGUAUUCUUCUCAUAAGAUAUAGUCGGACCUCUCCUUAAUGGGAGCUAGCGGAUGAAGUGAUGCAACACUGGAGCCGCUGGGAACUAAUUUGUAUGCGAAAGUAUAUUGAUUAGUUUUGGAGUACUCGUGGUCG
Summary of the method: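 Fitness was computed with DiMSum as the error-weighted combination of replicate fold changes, kanamycin versus none, each normalised to wild type. The library randomised all eight intron nucleotides of the P1ex region, with the intron placed in the knt kanamycin-resistance gene on pET-22b(+) in E. coli BL21(DE3). Six replicate transformations were grown overnight at 37°C or 30°C on LB agar with or without 25 μg/mL kanamycin, plus 100 μg/mL carbenicillin, 50 μM IPTG and 0.2% rhamnose. Pooled colonies were amplicon-sequenced on an Illumina HiSeq 2500.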

Sequence | self-splicing fitness (ln) (30 °C) | self-splicing fitness (ln) (37 °C)
GAGAAGCAAUAUUACGUCCA | -0.235 ± 0.12 | 0.335 ± 0.14
GAGAAGCAAUAUUACGUCUU | -2.33 ± 0.23 | -2.92 ± 0.36
GAGAAGCAAUAUUACGUGGU | -3.27 ± 0.17 | -2.32 ± 0.21
GAGCAGCAAUAUUACGAAUA | -2.87 ± 0.37 | -1.8 ± 0.24
GAGCAGCAAUAUUACGAAUC | -2.08 ± 0.07 | -1.22 ± 0.083
GAGCAGCAAUAUUACGAGAA | -2.25 ± 0.31 | -2.61 ± 0.36
GAGCAGCAAUAUUACGAGCA | -0.982 ± 0.11 | -0.888 ± 0.13
GAGCAGCAAUAUUACGAGUU | -2.48 ± 0.13 | -1.1 ± 0.13
GAGCAGCAAUAUUACGAUCU | -1.71 ± 0.15 | -0.141 ± 0.12
GAGCAGCAAUAUUACGAUGG | -3.68 ± 0.25 | -2.61 ± 0.31
GAGCAGCAAUAUUACGCAAA | -1.4 ± 0.2 | -0.683 ± 0.14
GAGCAGCAAUAUUACGCAAG | -1.36 ± 0.16 | -0.218 ± 0.3
GAGCAGCAAUAUUACGCAAU | -1.89 ± 0.12 | -1.53 ± 0.2
GAGCAGCAAUAUUACGCCAG | -2.49 ± 0.42 | -2.85 ± 0.34
GAGCAGCAAUAUUACGCCUA | -0.758 ± 0.064 | 0.0984 ± 0.085
GAGCAGCAAUAUUACGCCUU | -3.8 ± 0.32 | -1.32 ± 0.19
GAGCAGCAAUAUUACGCGAA | -3.01 ± 0.25 | -1.27 ± 0.15
GAGCAGCAAUAUUACGCGGC | -3.97 ± 0.25 | -1.87 ± 0.14
GAGCAGCAAUAUUACGGAUA | -2.15 ± 0.22 | -2.11 ± 0.26
GAGCAGCAAUAUUACGGCAG | -2.34 ± 0.16 | -1.69 ± 0.19
GAGCAGCAAUAUUACGGCCU | -0.475 ± 0.07 | -0.0538 ± 0.081
GAGCAGCAAUAUUACGGCUG | -3.87 ± 0.26 | -2.51 ± 0.28
GAGCAGCAAUAUUACGGCUU | -4.43 ± 0.33 | -2.53 ± 0.27
GAGCAGCAAUAUUACGGGAU | -3.27 ± 0.27 | -3.1 ± 0.23
GAGCAGCAAUAUUACGGUAA | -1.95 ± 0.13 | -0.00417 ± 0.12

Sequence | self-splicing fitness (ln) (30 °C) | self-splicing fitness (ln) (37 °C)
GAGCAGCAAUAUUACGGUUU | -3.11 ± 0.17 | -1.84 ± 0.19
GAGCAGCAAUAUUACGUGAA | -0.549 ± 0.079 | -0.526 ± 0.13
GAGCAGCAAUAUUACGUUCG | -1.51 ± 0.097 | -0.474 ± 0.098
GAGCAGCAAUAUUACGUUGC | -4.45 ± 0.34 | -3.41 ± 0.23
GAGCAGCAAUAUUACGUUUA | -1.17 ± 0.092 | -1 ± 0.097
GAGCAGCAAUAUUACGUUUU | -2.63 ± 0.092 | -2.3 ± 0.12
GAGGAGCAAUAUUACGAAGG | -4.59 ± 0.46 | -2.39 ± 0.27
GAGGAGCAAUAUUACGACGA | -1.2 ± 0.13 | 0.494 ± 0.13
GAGGAGCAAUAUUACGAGAC | -2.67 ± 0.22 | –
GAGGAGCAAUAUUACGAUUU | -1.07 ± 0.1 | -0.084 ± 0.13
GAGGAGCAAUAUUACGCAGC | – | -1.04 ± 0.44
GAGGAGCAAUAUUACGCAUU | -2.99 ± 0.43 | -0.645 ± 0.33
GAGGAGCAAUAUUACGCCGG | -3.44 ± 0.48 | -2.68 ± 0.36
GAGGAGCAAUAUUACGCGUC | – | -1.75 ± 0.38
GAGGAGCAAUAUUACGGAGA | -2.95 ± 0.2 | -2.25 ± 0.27
GAGGAGCAAUAUUACGGCAC | -2.08 ± 0.19 | -1.64 ± 0.19
GAGGAGCAAUAUUACGGGGA | -1.86 ± 0.23 | -3.17 ± 0.4
GAGGAGCAAUAUUACGUCCA | -1.23 ± 0.12 | -0.83 ± 0.16
GAGGAGCAAUAUUACGUCCG | -2.52 ± 0.24 | -2.24 ± 0.31
GAGGAGCAAUAUUACGUGGA | -3.86 ± 0.32 | -2.98 ± 0.29
GAGGAGCAAUAUUACGUUAG | -4 ± 0.27 | -1.93 ± 0.27
GAGGAGCAAUAUUACGUUUA | -1.89 ± 0.26 | -1.84 ± 0.32
GAGUAGCAAUAUUACGAACA | – | -1.28 ± 0.34
GAGUAGCAAUAUUACGAGAG | -3.63 ± 0.24 | -3.64 ± 0.27
GAGUAGCAAUAUUACGAUCG | -1.06 ± 0.11 | -0.986 ± 0.12

Sequence | self-splicing fitness (ln) (30 °C) | self-splicing fitness (ln) (37 °C)
GAGUAGCAAUAUUACGAUGC | -1.79 ± 0.23 | -0.495 ± 0.26
GAGUAGCAAUAUUACGCAAC | -3.77 ± 0.37 | -2.66 ± 0.36
GAGUAGCAAUAUUACGCAGC | – | -2.81 ± 0.34
GAGUAGCAAUAUUACGCGCU | – | -0.5 ± 0.39
GAGUAGCAAUAUUACGCGUC | -1.36 ± 0.21 | -1.26 ± 0.22
GAGUAGCAAUAUUACGCUUU | -3.16 ± 0.32 | -1.39 ± 0.23
GAGUAGCAAUAUUACGGAAC | -3.8 ± 0.34 | -1.79 ± 0.22
GAGUAGCAAUAUUACGGACC | -1.29 ± 0.21 | -0.248 ± 0.22
GAGUAGCAAUAUUACGGCUU | -2.2 ± 0.12 | -1.78 ± 0.15
GAGUAGCAAUAUUACGGGCC | -2.52 ± 0.15 | -1.32 ± 0.13
GAGUAGCAAUAUUACGGUAU | -2.6 ± 0.13 | -2.22 ± 0.2
GAGUAGCAAUAUUACGUACA | -0.962 ± 0.2 | -0.303 ± 0.18
GAGUAGCAAUAUUACGUCAA | -2.1 ± 0.19 | -1.8 ± 0.23
GAGUAGCAAUAUUACGUUUU | -2.6 ± 0.22 | -2.12 ± 0.24
GAUAAGCAAUAUUACGAAGU | -2.4 ± 0.18 | -1.15 ± 0.23
GAUAAGCAAUAUUACGAAUA | -2.53 ± 0.22 | -1.58 ± 0.3
GAUAAGCAAUAUUACGACGC | 0.303 ± 0.055 | -0.0161 ± 0.063
GAUAAGCAAUAUUACGAGGG | -4.01 ± 0.39 | -2.19 ± 0.24
GAUAAGCAAUAUUACGAUAG | -1.66 ± 0.15 | -1.95 ± 0.2
GAUAAGCAAUAUUACGAUGG | -3.06 ± 0.31 | -0.54 ± 0.21
GAUAAGCAAUAUUACGCACA | -0.364 ± 0.14 | 0.39 ± 0.18
GAUAAGCAAUAUUACGCGAA | -2.31 ± 0.093 | -1.65 ± 0.11
GAUAAGCAAUAUUACGCGAU | – | -2.82 ± 0.26
GAUAAGCAAUAUUACGCGGA | -3.54 ± 0.22 | -0.761 ± 0.12
GAUAAGCAAUAUUACGCUAA | -2.41 ± 0.24 | -2.28 ± 0.32

Sequence | self-splicing fitness (ln) (30 °C) | self-splicing fitness (ln) (37 °C)
GAUAAGCAAUAUUACGCUCG | -0.655 ± 0.15 | 0.0364 ± 0.17
GAUAAGCAAUAUUACGGAGA | -3.48 ± 0.36 | -2.78 ± 0.24
GAUAAGCAAUAUUACGGCGG | -2.27 ± 0.12 | -1.32 ± 0.13
GAUAAGCAAUAUUACGGCUG | -0.569 ± 0.067 | 0.0614 ± 0.1
GAUAAGCAAUAUUACGGUGG | -2.85 ± 0.23 | -2.24 ± 0.2
GAUAAGCAAUAUUACGGUUU | -1.22 ± 0.056 | -0.908 ± 0.069
GAUAAGCAAUAUUACGUCAC | – | -1.86 ± 0.27
GAUAAGCAAUAUUACGUUUG | -2.07 ± 0.17 | -1.92 ± 0.17
GAUCAGCAAUAUUACGAACA | 0.0135 ± 0.15 | 0.0485 ± 0.15
GAUCAGCAAUAUUACGACAA | -0.267 ± 0.081 | -0.396 ± 0.089
GAUCAGCAAUAUUACGACUG | -1.21 ± 0.082 | -0.166 ± 0.13
GAUCAGCAAUAUUACGAGUA | -1.2 ± 0.12 | -0.817 ± 0.092
GAUCAGCAAUAUUACGAUAU | -0.637 ± 0.08 | 0.658 ± 0.11
GAUCAGCAAUAUUACGAUUA | -0.622 ± 0.086 | 0.0655 ± 0.1
GAUCAGCAAUAUUACGCAGC | -1.64 ± 0.11 | -0.448 ± 0.13
GAUCAGCAAUAUUACGCUAA | -1.11 ± 0.12 | -0.316 ± 0.15
GAUCAGCAAUAUUACGCUCU | -1.3 ± 0.12 | -0.735 ± 0.15
GAUCAGCAAUAUUACGGCCG | -0.635 ± 0.13 | -0.245 ± 0.14
GAUCAGCAAUAUUACGUAAU | -0.0684 ± 0.098 | -0.341 ± 0.13
GAUCAGCAAUAUUACGUAGU | -0.663 ± 0.1 | -0.885 ± 0.1
GAUCAGCAAUAUUACGUCAU | -1.53 ± 0.094 | -0.393 ± 0.1
GAUCAGCAAUAUUACGUCGA | -1.35 ± 0.084 | -0.202 ± 0.096
